Patent US20260274928A1 (VIR BIOTECHNOLOGY, published 2026)
Read-outs that look alike come from different tables or passages of the source.

How the values were obtained:
[1] = molecular target: SARS-CoV-2 BA.1 RBD (SARS-CoV-2 BA.1, UniProt P0DTC2 328-531); assay: RBD binding affinity (SPR, see Example 5)
[2] = molecular target: SARS-CoV-2 BA.5 S glycoprotein (SARS-CoV-2 BA.5); assay: cell-based or functional assay
[3] = molecular target: SARS-CoV-2 XBB.1.5 S glycoprotein (SARS-CoV-2 XBB.1.5); assay: cell-based or functional assay
[4] = molecular target: SARS-CoV-2 BQ.1.1 S glycoprotein (SARS-CoV-2 BQ.1.1); assay: cell-based or functional assay
[5] = molecular target: SARS-CoV-2 BQ.1.1 S glycoprotein (SARS-CoV-2 BQ.1.1); assay: cell-based or functional assay; remark: listed apart in the source
[6] = molecular target: SARS-CoV-2 BQ.1.1 S glycoprotein (SARS-CoV-2 BQ.1.1); assay: cell-based or functional assay; remark: listed apart in the source

Binder | Kd [1] | IC50 [2] | IC50 [3] | IC50 [4] | FC IC50 par/IC50 Var [5] | IC50 [5] | FC vs S2V29-v1.2 [2] | IC50 [6] | FC vs S2V29-v1.2 [4]
S3L17 (antibody, V domains shown) VH: EVQLVESGGGLVQPGGSLRLSCAASEIIVSSNYMNWVRQAPGKGLEWVSVIYAGGSTFYADSVRGRFTISRDNSKNTLYLQMNSLRPDDTAIYYCARDLGPWGMDVWGQGTTVTVSS VL: DIQMTQSPSSLSASVGDRVAITCRASHGINNDLAWYQQKPGKVPKLLIYAASTLQSGVPSRFSGSGSGTDFTLTISSLQPEDVATYYCQHYSSDPRFTFGPGTKVDIK | 0.08 nM |  |  |  |  |  |  |  | 
S2V29-v1.2 (antibody, V domains shown) VH: EVQLVESGGSVVQPGRALRLSCAASGITFSSFGMYWVRQAPGKGLEWLGVIAYDGSNTYYADSVKGRFTISRDNSKNTLYLQMNSLRIEDTAVYYCAKDYYPLLSYYYGLDVWGQGTTVTVSS VL: QSVLTQPRSVSGSPGQSVTISCTGTSSDVGAYNYVSWYQQHPGKAPKFMIYDVDQRPSGVPDRFSGSKSGNTASLIISGLQAEDEADYYCSSYAGSYIWVFGGGTQLTVL | 0.05 nM | 2.6 ng/mL | 5.2 ng/mL | 9 ng/mL |  |  |  |  | 
S2V29-v37.2 (antibody, V domains shown) VH: EVQLVESGGSVVQPGRALRLSCAASGITFSSFGMYWVRQAPGKGLEWLGYIAYDGSDTYYADSVKGRFTISRDNSKNTLYLQMNSLRIEDTAVYYCAKDYYPLLSYYYGLDVWGQGTTVTVSS VL: QSVLTQPRSVSGSPGQSVTISCTGTSSDVGAYNYVSWYQQHPGKAPKFMIYDVDQRPSGVPDRFSGSKSGNTASLIISGLQAEDEADYYCSSYAGSYIWVFGGGTQLTVL | 0.39 nM | 2.1 ng/mL |  | 5.6 ng/mL | 1.4 fold | 5.6 ng/mL | 1.2 fold | 5 ng/mL | 1.6 fold
